# Measurements taken from publication PMC4534855 (2015).
# B1: Flag-eIF2β, wild type [S. cerevisiae] / eIF2Bε in yeast whole-cell extracts [yeast (endogenous in yeast whole-cell extracts)] (parent)
# chain 1: MSSDLAAELGFDPALKKKKKTKKVIPDDFDAAVNGKENGSGDDLFAGLKKKKKKSKSVSADAEAEKEPTDDIAEALGELSLKKKKKKTKDSSVDAFEKELAKAGLDNVDAESKEGTPSANSSIQQEVGLPYSELLSRFFNILRTNNPELAGDRSGPKFRIPPPVCLRDGKKTIFSNIQDIAEKLHRSPEHLIQYLFAELGTSGSVDGQKRLVIKGKFQSKQMENVLRRYILEYVTCKTCKSINTELKREQSNRLFFMVCKSCGSTRSVSSIKTGFQATVGKRRRM
# chain 2: MAGKKGQKKSGLGNHGKNSDMDVEDRLQAVVLTDSYETRFMPLTAVKPRCLLPLANVPLIEYTLEFLAKAGVHEVFLICSSHANQINDYIENSKWNLPWSPFKITTIMSPEARCTGDVMRDLDNRGIITGDFILVSGDVLTNIDFSKMLEFHKKMHLQDKDHISTMCLSKASTYPKTRTIEPAAFVLDKSTSRCIYYQDLPLPSSREKTSIQIDPELLDNVDEFVIRNDLIDCRIDICTSHVPLIFQENFDYQSLRTDFVKGVISSDILGKHIYAYLTDEYAVRVESWQTYDTISQDFLGRWCYPLVLDSNIQDDQTYSYESRHIYKEKDVVLAQSCKIGKCTAIGSGTKIGEGTKIENSVIGRNCQIGENIRIKNSFIWDDCIIGNNSIIDHSLIASNATLGSNVRLNDGCIIGFNVKIDDNMDLDRNTKISASPLKNAGSRMYDNESNEQFDQDLDDQTLAVSIVGDKGVGYIYESEVSDDEDSSTEACKEINTLSNQLDELYLSDDSISSATKKTKKRRTMSVNSIYTDREEIDSEFEDEDFEKEGIATVERAMENNHDLDTALLELNTLRMSMNVTYHEVRIATITALLRRVYHFIATQTLGPKDAVVKVFNQWGLLFKRQAFDEEEYIDLMNIIMEKIVEQSFDKPDLILFSALVSLYDNDIIEEDVIYKWWDNVSTDPRYDEVKKLTVKWVEWLQNADEESSSEEE
# B2: Flag-eIF2β, wild type [S. cerevisiae] / eIF2α in yeast whole-cell extracts [yeast (endogenous in yeast whole-cell extracts)] (parent)
# chain 1: B1 chain 1
# chain 2: MSTSHCRFYENKYPEIDDIVMVNVQQIAEMGAYVKLLEYDNIEGMILLSELSRRRIRSIQKLIRVGKNDVAVVLRVDKEKGYIDLSKRRVSSEDIIKCEEKYQKSKTVHSILRYCAEKFQIPLEELYKTIAWPLSRKFGHAYEAFKLSIIDETVWEGIEPPSKDVLDELKNYISKRLTPQAVKIRADVEVSCFSYEGIDAIKDALKSAEDMSTEQMQVKVKLVAAPLYVLTTQALDKQKGIEQLESAIEKITEVITKYGGVCNITMPPKAVTATEDAELQALLESKELDNRSDSEDDEDESDDE
# Variants of: B1
# Assay: co-immunoprecipitation with FLAG affinity resin, quantified western
# Details: three biological replicates, read off a plot
row,Variant,response
1,chain 1 F217A Q221A,0.63 eIF2Bε:eIF2β
2,chain 1 S202A K214A,0.84 eIF2Bε:eIF2β

# Variants of: B2
# Assay: as above
# Details: three biological replicates, read off a plot
row,Variant,response
1,chain 1 S202A K214A,0.96 eIF2α:eIF2β
2,chain 1 F217A Q221A,0.94 eIF2α:eIF2β
